Assay results taken from patent publication US20250304693A1 (HIFIBIO, published 2025).

T1: cynomolgus BTLA on cells (cynomolgus, UniProt A0A2K5W7M7 31-289)
T1 construct: whole, on cells; Overexpressed on Expi293 cells; also called cyno BTLA; CynoBTLA
T1 sequence: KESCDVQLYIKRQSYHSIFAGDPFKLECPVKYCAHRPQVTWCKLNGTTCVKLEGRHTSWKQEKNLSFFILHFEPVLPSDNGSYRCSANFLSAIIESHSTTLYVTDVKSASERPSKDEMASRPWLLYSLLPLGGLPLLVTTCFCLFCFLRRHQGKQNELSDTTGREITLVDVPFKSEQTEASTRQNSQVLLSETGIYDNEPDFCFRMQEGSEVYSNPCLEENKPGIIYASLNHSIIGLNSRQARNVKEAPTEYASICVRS


Columns and labels:
[1] = molecular target: T2, human BTLA (B- and T-lymphocyte attenuator) on cells (human, UniProt Q7Z6A9 31-289); test: FACS, HEK293 cells overexpressing human BTLA, AF647 anti-human IgG Fc secondary antibody
T2 construct: whole, on cells; also called hBTLA; HEK293.BTLA

[2] = molecular target: T1, cynomolgus BTLA on cells; test: FACS, Expi293 cells overexpressing cynomolgus BTLA, AF647 anti-human IgG Fc secondary antibody
[3] = molecular target: T2, human BTLA (B- and T-lymphocyte …); test: cell-based or functional assay
[4] = molecular target: T2, human BTLA (B- and T-lymphocyte …); test: cell-based or functional assay; remark: listed apart in the source
[5] = molecular target: T2, human BTLA (B- and T-lymphocyte …); test: FACS on HEK293T.hBTLA cells, AF647 anti-human IgG Fc detection
Procedure: (§1) In FIGS. 11A and 11B, HEK293 overexpressing human BTLA (FIG. 11A) and Expi293 cells overexpressing cynomolgus BTLA (FIG. 11B) were incubated with different concentrations of selected HFB6-3 humanized variants with cysteine mutations. Anti-BTLA antibodies binding to target cells were quantified with an AF647-conjugated anti-human IgG Fc 2nd antibody by FACS. HFB6-3hz24-hG4P-C109A, HFB6-3hz25-hG4P-C109A, HFB6-3hz24-hG4P-C109S and HFB6-3hz25-hG4P-C109S bound to human BTLA and cyno BTLA with single digit nM and sub-nM EC₅₀, similar as parental HFB6-3 (FIGS. 11A and 11B and Table 13).

[6] = molecular target: T1, cynomolgus BTLA on cells; test: FACS on Expi293.cynoBTLA cells, AF647 anti-human IgG Fc detection
Procedure: as §1

[7] = molecular target: T2, human BTLA (B- and T-lymphocyte …); test: FACS competition on HEK293T.hBTLA cells; competitor hrHVEM-His-DL650
Procedure: In FIG. 12A, recombinant HVEM soluble protein was conjugated with DyLight 650 (DL650) fluorophore. HEK293 cells overexpressing hBTLA (HEK293.BTLA) were preincubated with increasing concentrations of selected HFB6-3 humanized variants with cysteine mutants or parental HFB6-3 at 4° C. for 30 minutes and then with DL650-conjugated HVEM for additional 30 minutes. After washing, soluble HVEM remaining associated with BTLA on HEK293.BTLA cells was measured by FACS.

[8] = molecular target: T2, human BTLA (B- and T-lymphocyte …); test: FACS competition on HEK293.BTLA cells; competitor DL650-conjugated soluble HVEM
Procedure: In FIG. 3A, recombinant HVEM soluble protein was conjugated with DyLight 650 (DL650) fluorophore. HEK293 cells overexpressing hBTLA (HEK293.BTLA) were preincubated with increasing concentrations of HFB6-2 and HFB6-3 at 4° C. for 30 minutes and then with DL650-conjugated HVEM for an additional 30 minutes. After washing, soluble HVEM remaining associated with BTLA on HEK293.BTLA cells was measured by FACS. HFB6-2 and HFB6-3 blocked soluble HVEM and cellular BTLA interaction with single digit nM IC₅₀.

[9] = molecular target: T2, human BTLA (B- and T-lymphocyte …); test: FACS on HEK293 cells overexpressing human BTLA, AF647 anti-human IgG Fc detection
Procedure: (§2) In FIGS. 2A-2B, HEK293 cells overexpressing human BTLA and Expi293 cells overexpressing cynomolgus BTLA were incubated with different concentrations of anti-BTLA parental antibodies. Anti-BTLA antibody binding to target cells was quantified with an AF647-conjugated anti-human IgG Fc 2nd antibody by FACS.

[10] = molecular target: T1, cynomolgus BTLA on cells; test: FACS on Expi293 cells overexpressing cynomolgus BTLA, AF647 anti-human IgG Fc detection
Procedure: as §2

[11] = molecular target: T2, human BTLA (B- and T-lymphocyte …); test: FACS, primary human T cells, donor 149, AF647 anti-human IgG Fc secondary antibody
Procedure: (§3) In FIGS. 4A-4D, primary T cells and B cells were isolated from human PBMC with EasySep™ Human T Cell Isolation Kit and B cell isolation kit ([…] Technologies: Vancouver, Canada). Isolated T cells or B cells were incubated with different concentrations of anti-BTLA parental antibodies. Anti-BTLA antibody binding to target cells was quantified with an AF647-conjugated anti-human IgG Fc 2nd antibody by FACS.

[12] = molecular target: T2, human BTLA (B- and T-lymphocyte …); test: FACS, primary human B cells, donor 149, AF647 anti-human IgG Fc secondary antibody
Procedure: as §3

[13] = molecular target: T2, human BTLA (B- and T-lymphocyte …); test: FACS, primary human T cells, donor 1709, AF647 anti-human IgG Fc secondary antibody
Procedure: as §3

[14] = molecular target: T2, human BTLA (B- and T-lymphocyte …); test: FACS, primary human B cells, donor 1709, AF647 anti-human IgG Fc secondary antibody
Procedure: as §3

EC50 (read off the curve) [1] | EC50 (read off the curve) [2] | BTLA-HVEM blockade reporter assay, EC50 [3] | CHO.TCRa.hHVEM/Jurkat.hBTLA.NFAT-luc (EC50 (nM)) [4] | EC50 [5] | EC50 [6] | IC50 [7] | IC50 [8] | EC50 [9] | EC50 [10] | EC50 [11] | EC50 [12] | EC50 [13] | EC50 [14] | Binder
~0.8 nM | ~0.6 nM | – | – | – | – | – | – | – | – | – | – | – | – | 22B3 (antibody, V domains shown) VH: QVQLVQSGAEVKKPGASVKVSCKASGFSLSSYGVSWVRQAPGQGLEWMGAISYDGITYYASWAKSRVTMTRDTSTSTVYMELSSLRSEDTAVYYCARGDYYDDYVYVYALDIWGQGTLVTVSS VL: EIVLTQSPGTLSLSPGERATLSCQASQSISTALAWYQQKPGQAPRLLIYAASTLASGIPDRFSGSGSGTDFTLTISRLEPEDFAVYYCQQGYSSSNLDNVFGGGTKVEIKR
– | – | 12.5 nM | 7.9 nM | 3.21 nM | 5.7 nM | 2.69 nM | 7.71 nM | 1.45 nM | 0.823 nM | 3.7 nM | 0.44 nM | 7.3 nM | 0.28 nM | HFB6-3 (antibody, V domains shown, Mouse lead antibody; also called HFB6-3-hG4P; parental HFB6-3) VH: EVQLQQSGAELVKPGASVKLSCTDSGFNIKDTYIHWVTQRPQQGLEWIGRIDPANGFTRYDPKFQGKATITSDTSSNTAYLQLSSLTSEDTAVYYCAREDGYPYYTLDCWGQGTSVTVSS VL: not shown
